Data taken from PMC10113255, “PHF14 enhances DNA methylation of SMAD7 gene to promote TGF-β-driven lung adenocarcinoma metastasis”.

T1: PHF14 ePHD domain WT (Homo sapiens, UniProt O94880 382-499)
T1 sequence: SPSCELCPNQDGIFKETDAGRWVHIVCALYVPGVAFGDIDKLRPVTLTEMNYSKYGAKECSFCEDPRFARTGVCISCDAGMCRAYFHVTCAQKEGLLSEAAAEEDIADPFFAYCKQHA

B1: AT-rich probe (dsDNA)
DNA 1: CATTAGATGATAGCATTAGATGATAG
DNA 2: CTATCATCTAATGCTATCATCTAATG
B2: CG-rich probe, unmethylated (dsDNA)
DNA 1: ACGGCTCGTCGCTACGGCTCGTCGCT
DNA 2: AGCGACGAGCCGTAGCGACGAGCCGT

Molecular target: T1, PHF14 ePHD domain WT
Experiment: SPR; protein immobilized on CM5; SPR: HBS-P (10 mM HEPES pH 7.4, 150 mM NaCl, 0.05% P20), 25 °C, 1:1 Langmuir fit; EMSA: LightShift kit protocol, 0.5x TBE native PAGE, buffer not stated
Conditions: protein: recombinant; tags: His (EMSA, purification method); FLAG (SPR); label: biotin (EMSA); blunt

Binder	Kd [nM]
B1	230
B2	36
